From patent US20150064134A1

Assays:
Assay in all cases: cell-based or functional assay
[1] = target: CDK9/cyclin T1(h) (human) (UniProt P50750)
CHK1(h) (human) = target: T1, CHK1(h) (human) (UniProt O14757)
T1 sequence (looked up): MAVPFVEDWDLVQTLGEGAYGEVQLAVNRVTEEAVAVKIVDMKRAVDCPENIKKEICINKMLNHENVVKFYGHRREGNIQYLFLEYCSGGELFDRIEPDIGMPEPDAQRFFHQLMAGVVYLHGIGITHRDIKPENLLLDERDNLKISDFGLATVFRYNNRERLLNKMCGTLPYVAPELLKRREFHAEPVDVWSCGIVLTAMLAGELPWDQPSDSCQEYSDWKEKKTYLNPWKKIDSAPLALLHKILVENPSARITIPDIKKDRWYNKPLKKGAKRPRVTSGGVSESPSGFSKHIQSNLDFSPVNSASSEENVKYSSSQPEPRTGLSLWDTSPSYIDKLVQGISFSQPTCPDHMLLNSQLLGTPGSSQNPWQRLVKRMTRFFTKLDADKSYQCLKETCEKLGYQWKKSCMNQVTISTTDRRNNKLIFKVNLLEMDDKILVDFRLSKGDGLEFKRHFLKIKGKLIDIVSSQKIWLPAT

DMPK(h) (human) = DMPK(h) (human) (UniProt Q09013)
HIPK1(h) (human) = HIPK1(h) (human) (UniProt Q86Z02)
Hck(h) (human) = Hck(h) (human) (UniProt P08631)
Lck(h) activated (human) = Lck(h) activated (human) (UniProt P06239)
PKD2(h) (human) = target: T2, PKD2(h) (human) (UniProt Q9BZL6)
T2 sequence (looked up): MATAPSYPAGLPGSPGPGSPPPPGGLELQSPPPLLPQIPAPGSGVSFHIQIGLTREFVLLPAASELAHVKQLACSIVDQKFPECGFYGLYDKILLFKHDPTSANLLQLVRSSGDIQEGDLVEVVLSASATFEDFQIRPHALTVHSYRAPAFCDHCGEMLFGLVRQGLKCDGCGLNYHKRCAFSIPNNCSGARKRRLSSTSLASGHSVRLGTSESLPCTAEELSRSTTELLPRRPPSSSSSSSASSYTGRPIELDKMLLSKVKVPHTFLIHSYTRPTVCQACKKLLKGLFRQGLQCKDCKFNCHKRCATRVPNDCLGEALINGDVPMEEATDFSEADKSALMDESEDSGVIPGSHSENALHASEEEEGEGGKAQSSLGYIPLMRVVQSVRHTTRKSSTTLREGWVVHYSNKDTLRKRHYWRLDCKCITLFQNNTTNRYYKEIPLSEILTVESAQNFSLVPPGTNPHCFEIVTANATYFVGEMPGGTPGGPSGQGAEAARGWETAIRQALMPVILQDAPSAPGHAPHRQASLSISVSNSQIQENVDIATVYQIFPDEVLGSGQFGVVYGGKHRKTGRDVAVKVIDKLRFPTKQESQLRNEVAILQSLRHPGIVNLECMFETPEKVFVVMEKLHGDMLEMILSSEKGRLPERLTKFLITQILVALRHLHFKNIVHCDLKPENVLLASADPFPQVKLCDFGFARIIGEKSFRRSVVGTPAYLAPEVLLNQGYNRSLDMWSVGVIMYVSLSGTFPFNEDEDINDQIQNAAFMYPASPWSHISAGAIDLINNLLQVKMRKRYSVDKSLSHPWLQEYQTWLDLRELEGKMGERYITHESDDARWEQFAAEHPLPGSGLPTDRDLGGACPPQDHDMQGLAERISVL

Plk3(h) (human) = Plk3(h) (human) (UniProt Q9H4B4)
SGK2(h) (human) = target: T3, SGK2(h) (human) (UniProt Q9HBY8)
T3 sequence (looked up): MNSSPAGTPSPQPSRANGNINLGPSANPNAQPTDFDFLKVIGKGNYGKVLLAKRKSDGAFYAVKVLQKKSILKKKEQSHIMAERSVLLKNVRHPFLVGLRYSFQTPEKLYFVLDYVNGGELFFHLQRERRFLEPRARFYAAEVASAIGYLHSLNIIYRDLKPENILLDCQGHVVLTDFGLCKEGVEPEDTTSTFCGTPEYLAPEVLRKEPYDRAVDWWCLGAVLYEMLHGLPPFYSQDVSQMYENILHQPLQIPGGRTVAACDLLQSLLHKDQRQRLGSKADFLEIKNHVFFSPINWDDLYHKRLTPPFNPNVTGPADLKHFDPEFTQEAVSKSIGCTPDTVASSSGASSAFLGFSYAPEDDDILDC

Src(1-530)(h) (human) = Src(1-530)(h) (human) (UniProt P12931)
Syk(h) (human) = Syk(h) (human) (UniProt P43405)
TrkB (h) (human) = TrkB (h) (human) (UniProt Q16620)
cKit(D816V)(h) (human) = cKit(D816V)(h) (human) (UniProt P10721)
cSRC(h) (human) = cSRC(h) (human) (UniProt P12931)

cKit(D816V)(h) (human), sequence (P10721 544-976 D816V): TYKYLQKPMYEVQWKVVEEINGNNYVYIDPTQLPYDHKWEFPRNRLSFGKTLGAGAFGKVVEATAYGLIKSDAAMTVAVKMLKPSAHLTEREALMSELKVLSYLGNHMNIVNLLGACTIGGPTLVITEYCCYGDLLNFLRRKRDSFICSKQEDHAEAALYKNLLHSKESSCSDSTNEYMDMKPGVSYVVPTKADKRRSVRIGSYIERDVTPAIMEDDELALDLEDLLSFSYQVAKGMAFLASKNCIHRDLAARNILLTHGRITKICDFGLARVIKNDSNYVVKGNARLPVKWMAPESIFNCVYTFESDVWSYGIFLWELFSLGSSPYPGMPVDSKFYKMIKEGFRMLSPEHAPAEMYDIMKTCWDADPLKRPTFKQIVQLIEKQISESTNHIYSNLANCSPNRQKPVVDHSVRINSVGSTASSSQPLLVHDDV

Substance | % activity at 100 µM [1] | % activity at 100 µM (CHK1(h) (human)) | % activity at 100 µM (DMPK(h) (human)) | % activity at 100 µM (HIPK1(h) (human)) | % activity at 100 µM (Hck(h) (human)) | % activity at 100 µM (Lck(h) activated (human)) | % activity at 100 µM (PKD2(h) (human)) | % activity at 100 µM (Plk3(h) (human)) | % activity at 100 µM (SGK2(h) (human)) | % activity at 100 µM (Src(1-530)(h) (human)) | % activity at 100 µM (Syk(h) (human)) | % activity at 100 µM (TrkB (h) (human)) | % activity at 100 µM (cKit(D816V)(h) (human)) | % activity at 100 µM (cSRC(h) (human))
MMI-0400 (peptide) | 235% | 87% | 54% | 91% | 72% | 216% | 25% | 129% | 98% | 19% | 9% | 8% | 35% | 14%
MMI-0300 (peptide) | 91% | 91% | 59% | 74% | 72% | 243% | 33% | 127% | 56% | 23% | 24% | 5% | 60% | 26%
MMI-0500 (peptide) | 6% | 65% | 12% | 47% | 78% | 76% | 10% | 122% | -1% | 21% | 5% | 12% | 30% | 30%
